Reference: US8993320B2, “Culture method to obtain and maintain a pure or enriched population of mammalian neural stem cells and/or neural/progenitor cells that are prone to differentiate into oligodendrocyte-lineage cells in vitro” (priority 2011, dated 2015)

B1: PDGF-BB: PDGF family member used to replace PDGF-AA (protein, UniProt P01127 82-190, looked up)
Platelet-derived growth …: SLGSLTIAEPAMIAECKTRTEVFEISRRLIDRTNANFLVWPPCVEVQRCSGCCNNRNVQCRPTQVQLRPVQVRKIEIVRKKPIFKKATVTLEDHLACKCETVAAARPVT
B2: neurotrophin-3 (protein, UniProt P20783 139-257, looked up)
Neurotrophin-3: YAEHKSHRGEYSVCDSESLWVTDKSSAIDIRGHQVTVLGEIKTGNSPVKQYFYETRCKEARPVKNGCRGIDDKHWNSQCKTSQTYVRALTSENNKLVGWRWIRIDTSCVCALSRKIGRT
notes: growth factor

Legend:
HFSC cells [1] = test: Expansion of HFSC cells with growth factors and supplements (live cell count); assay type: cell-based, human; conditions: cell line #2b and cell line #3; same condition except for PDGF-AA
Experimental: FIG. 4 illustrates the expansion rate of HFSC cells (cell line #2b) in the presence of different combinations of growth factors: (1): 20 ng/ml PDGF-AA+10 ng/ml bFGF; (2): 20 ng/ml PDGF-AA+10 ng/ml bFGF+5 ng/ml NT-3; (3): 20 ng/ml PDGF-AA+10 ng/ml bFGF+10 ng/ml IGF-1; (4): 20 ng/ml PDGF-AA+10 ng/ml bFGF+5 ng/ml NT-3+10 ng/ml IGF-1. The cells were harvested at day 11 of passage 3 (P3D11) and number of live cells in each condition was counted. Then, they were passaged in the same condition that was used at passage 3 at the same cell density. The cells were harvested at day 8 of passage 4 (P4D8) and number of live cells in each condition was counted (these cells were harvested before they became sub-confluent because they started forming spheres). […] Condition (3) was effective at both passages. […] The cells were harvested at day 7 of passage 5 (these cells were harvested before they became sub-confluent because they started forming spheres as they did at passage 4) and number of live cells in each condition was counted. […]

HFSC cells [2] = test: as above; assay type: cell-based, human; conditions: 10 ng/ml NT-3 added at passage 17; cell line #2b; effect disappeared after a passage

Row | Molecule | expansion of cells when replacing PDGF-AA (HFSC cells [1]) | effect on cell growth (HFSC cells [2])
1 | B1 | could expand both cell lines | –
2 | B2 | – | enhanced the cell growth a little bit
